From the DeepSol protein solubility set

Assay: soluble on expression in E. coli; label from the status in PepcDB or PDB records

MAKKVFIGATGQNCGKTTMSVSLMHLARQKYQRVGFIKPIGPKIEMYNGLTVDMDAILMARTFGLEEDLALMNPVPLPKNFTRDYLSGKFDCHTLKKKIVEAFEILDQSYDFLIIEGAGHCGVGSVIGLSNACVAHMLGAPVIVVTDSGIGSAIDAVHLNLALYEKEEADVRMVIVNKLRSDKRDSILGFLRRGFPGRSLQVTGGFNYSPVLANPTLSHIGKLLNLPVHGDADGHSRIIHHIHLGAASSQRVVDALEDATLLVLTSSRDELIVTLSSLYHIPSYRDKIAGLVIAGHMPVSEITQQILDDSMIPYIRVHDSTARVFTTLMEDVSKITAEDQEKLNWIRANAENEIDFEAIDALLLEHHHHHH
soluble on expression in E. coli: not soluble

SNAGMTGFVINTRRAPFDDWRLREALLLAFNFEFINDTVTGGVMPRITSYFSGTDLAYRPGTASGREAELLAPFAADLPPGTLEGYALPQGDGTARNRTNLRRAAQFLEQAGFRIEQGQLLGPDGAPLALRFLLRQGDSDMQTVLEIYTRALERLGIAAQIEKVDNAQYTARVAELDFDLTPFRRDLSLSPGNEQRLYWGSHSAGQPGTRNLMGAASPAIDAMIDRMLAATTEDELTAATRALDRVLTAGRYVIPIWR
soluble on expression in E. coli: soluble

MSEREHWQRVYESKPSDAVSWFQAEATLSLDLIRRIGAPREAAIIDVGGGASTLVDGLLAEGFGDLTVLDLSDAALRVARNRLGARGEEVRWIAGDITGVDLPEATYDVWHDRAVFHFLTTAEARRAYVRQVMKAVRHGGHVIVATFAADGPTECSGLPVMRYDADELHAEFGSAFQLTEHRDEHHVTPAGRVQHFVYCHCLKRLLEHHHHHH
soluble on expression in E. coli: not soluble

GPGSNYTFSMRATLDDPDVQNGITQGDRQQIQDAVNAASSWLEKNREATKEEYMEQTKLIEGIAHPILSEFYKKRVMEAPPSAGPKDGAPSDEVPHAEDVD
soluble on expression in E. coli: soluble

MIDETAEEIREMRTHSSSVVAVKAARALEALLDSDYPTVAAYVRALERNSTALRRANPSHASLVTTQREVVSRVRDADPASIPEAQEVTAAAIDDVVARVNMGKHDAAAATAEHITDGQTLLTHDYSSTVLEAIELAAQDGAHLDVFVTEARPRHLGRKTVRALAQLDRVDPTLIVDGAAGHVLDDCDRVLLGMDCIVADTYYNRVGTYPIVAAAADAGTPVTVAGSAAKLVADGFQFTNDFRDTSEVIREPPAGFTVENPAYDATPTRLLDAVVTEDGRRTEFPLESLEHHHHHH
soluble on expression in E. coli: not soluble

MGSDKIHHHHHHMKIKVALLDKDKEYLDRLTGVFNTKYADKLEVYSFTDEKNAIESVKEYRIDVLIAEEDFNIDKSEFKRNCGLAYFTGTPGIELIKDEIAICKYQRVDVIFKQILGVYSDMAANVATISGENDKSSVVIFTSPCGGVGTSTVAAACAIAHANMGKKVFYLNIEQCGTTDVFFQAEGNATMSDVIYSLKSRKANLLLKLESCIKQSQEGVSYFSSTKVALDILEISYADIDTLIGNIQGMDNYDEIIVDLPFSLEIEKLKLLSKAWRIIVVNDGSQLSNYKFMRAYESVVLLEQNDDINIIRNMNMIYNKFSNKNSEMLSNISIKTIGGAPRYEHATVRQIIEALTKMEFFEEILQ
soluble on expression in E. coli: not soluble

MSLSKIIPFREEIFHQINQILESQKAFIFLWGKSGSGKSVLLQRLAKKYNVDFINENFKDQSFLKEKIEFLISQGQSLIILDEVGMYDYAMLESIRIYSDSISFVLSSHKKLNILKKEHFKSRLSACFKLKNISLLELDDYIKLKFGMNFSNKCLKFLQKISQGNLRYIDKTLKSFYEINSFFDKNKSQEYILKLSALENGLLREGHHHHHH
soluble on expression in E. coli: soluble

MLPIIYSLRNCPYAMRARLAIFKAKQAVLLRDLVLSHKPAEMIAVSPKGTVPVLVLANSTVIEESLEVMLWALQQTDPDDLLHCQQEGALPEMLSLINEFDNGFKTSLEAYKCAKRYQEDNIAQCRVVCQQYIEQLEQRLTEHMFLMSDKESLADIALVPFIRQFARVERQWYLQSPYPRVRRWLNSYLQSPVFTKVMAKHPLWLDNQQDILFGVN
soluble on expression in E. coli: not soluble

MDDATEQEVFNRMQMTQFEEKRFELVVIRAEDTVVVEPLRQRETCPKCHQILSSELSRLWHQFVHMDAYNGFLDGKFQIQLPDFEFVIPCPFSTCSLLFLDLIDARFHYLLEHQSCQLFCCGVRFSDYKTALEHLQGTGSVETEAWDQQKHFLKPVYICNCCNRTWSSRNEYVAHLHGRDHMCPDPVCKYIFETNEKCIRHFFEQHYKHLFLDSRHLLLNYKYFLRYQEKQEERAYGLYVCTTCQRRFRDNKGFQSHVASQNCEFFDRKFFVQVIACKCGHQFKYCYYQRDVLLRNLPVLREAMEHVEREAPFNNMPEDVCNIYRSIIVVIIDVNQRLINEKFTNYQRTSPLKHSSFTPRQMAKLLLEVVDYFWKIM
soluble on expression in E. coli: not soluble

MGSDKIHHHHHHMKTIKGPGIFLAQFIGTQAPFNTLAGIAQWAAGLGYKALQIPCNHPAIFDVERAAASQTYCDEVSGILAEHGLVISELSTHLEGQLVAVHPAYDAAFDAFAPAALHGDPQARQRWAVEKVRQAAVASGRLGLQAHATFSGALAWPFFYPWPPHNQPLLDEAFAELARRWRPLLDLFDEQGVDVCYEIHPGEDLHDGVTFERFLALVDNHPRCNMLYDPSHLHLQQMDYLAYIDIYHARIKAFHVKDAEFRRNGRNGVYGGYQPWQQRAGRFRSPGDGQIDFKGVFSKLTEYDFAGWAVLEWECCLKDSETGAREGSEFIRRHIIPVAGRAFDDFAAGGRE
soluble on expression in E. coli: not soluble

MGSDKIHHHHHHMATVTTSEGSAERREADSGALARGLNILSRLHEAARPLSLQDIAESVGLPTTTCHRLLQSLDVAGYVYREGSLYCPTPRAACPLPLEHPLNRLRRDTAPLMRELQERHGPSVLLIAFLGDHRVTVECVAGNYSVTPYFDTTVTAPLHASVSGKILLSDRTDEQRDALLGQAPYSARTEWTIRDRAALYAELEEVRKRGWATNQNENVIGICAVGSRLAAPSGRALGAIVLTGPSRFFAKGFDTMRDDLLQACQMLNSTSHAIRTMTQLLGV
soluble on expression in E. coli: not soluble

SLKCLVLTGISRNVIEELMRRNIRTIELRSAHNVATALKAEPGDCVFLTPARINDLGRGVSGLVAEVRGKEVMSQSLFYQSPSYIEESELTVVRLMLKPKSLGRLVQVKRGAFLETIEGDVVEMSYFDAR
soluble on expression in E. coli: soluble

MFGMSVFHSVLERLKAEQAEELTNEARGGWRGTVIGAAPGFIAESSAHAWASRGAVEQAYRALAADERSEPFSMPDYLTRTSLAEVASELALGEAETALTLAAKRRRFAAANHPDRLPVEARVNATLRMKLANMLIDEALRRIEKPTVTG
soluble on expression in E. coli: not soluble

MSSFTHFNEQGRAKMVDITHKEDTVRVAVAQTSVTVSREIYEKMTSNAIEKGDVLAVAQVAGVMAAKKTADLIPMCHPLMLKGVDIAFAWENDGEAHKLVITATVKTKGSTGVEMEALTAASVCALTVYDMCKALDKGMVIGPTYLVEKTGGKSGHYRRKTD
soluble on expression in E. coli: soluble

MGHHKAMPYADVAAFIIELRKREAVAATALEFTILTAARSGETLGAKWHEIDWKDKIWTVPAERMKAAREHRVPLSSRTITILKKLAEFGSDENSFVFPGQKPGKPLSVMAMDMVLRRMEVDVTVHGFRSSFRDWCGEVSNFPRDVAEAALAHVVGDKTERAYRRGDALEKRRKLMAAWEKFCIAEIKKNPLEHHHHHH
soluble on expression in E. coli: not soluble

MRHAVHQELIDTNPAANLGGVTTPPVRRHYPALPLERLPELLERIGAYHQGRELTRHAVLLMLHVFIRSSELRFARWSEIDFTNRVWTIPATREPIIGVRYSGRGAKMRMPHIVPLSEQSIAILKQIKDITGNNELIFPGDHNPYKPMCENTVNKALRVMGYDTKKDICGHGFRAMACSALMESGLWAKDAVERQMSHQERNTVRMAYIHKAEHLEARKAMMQWWSDYLEACRESYAPPYTIGKNKFIP
soluble on expression in E. coli: not soluble

MKIIARDRGTGKTTELVKESARTGQYILASNKSHVRAIEQIAKKAGVTIPYPVTVDEIVSMDRFTCASSIQRDGLLVDEAIMVLSKLIGLKITGATISLEGEQQC
soluble on expression in E. coli: not soluble
